A short description of this data set: amyloid nucleation score (Sup35N fusion, yeast selection) (log enrichment); library NNK2; higher = more nucleation; inactive = no reads after selection. The procedure, abridged:
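In psi-negative yeast, Sup35N fusions carrying peptides of 20 random codons were induced with 100 μM copper sulfate for 24 hours. The cells then grew 7 days at 30°C on medium lacking adenine and uracil, and plasmid inserts from input and output were Illumina-sequenced, excluding sequences with under 100 input reads. Nucleation score is the DiMSum log enrichment of output over input reads, centred on the mode score of non-aggregating sequences.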

± gives the uncertainty stated by the source.

GAWTAMSGVLMVMLWLWSVC had an amyloid nucleation score of 1.83 ± 0.23. As for TIGRGYGSISQRHAIRLGDN, the figure is 0.164 ± 0.8. As for PLDPHCVFPIDNTSMMRVV, the figure is 0.295 ± 0.32. With LNVGPQGYMCGSPLYDHCG the figure was 2.73 ± 0.076; with GFVDELLNKRRLMCLIKTWK, 0.179 ± 0.44; with AHLVCRLYETMQLYLYLQWY, -1.01 ± 0.3. The substance SDERSGFRTSVRG showed an amyloid nucleation score of 0.479 ± 0.29.

The substance GWLYVYDSGMFGGWNIGVDG registered an amyloid nucleation score of -0.131 ± 0.36. With IIALLYIKMTSTLVTVRKSL the figure was 0.297 ± 0.5.

As to CFTCHTIYCVYSKFKRDMDR, the amyloid nucleation score is 3.56 ± 0.047. With LILRCLC the figure was 0.235 ± 0.8. As for DITYEYTTWGFLRRQAIRRP, the amyloid nucleation score was found to be 3.63 ± 0.089.

In the case of QNLCDCCKYQICSVLFMGHA, the amyloid nucleation score stood at 4.33 ± 0.082. As for SSQSRSISYGLGNCWSWWL, the figure is 2.71 ± 0.081. As for DKRLCLMVCNLLVYYMPF, the figure is -0.952 ± 0.63; as for DVQGWFVITSGFADGSQARR, 1.19 ± 0.17; as for FTWVYMVGFKWWVSVCLLDS, -0.551 ± 0.28.

YFWFYTV returned an amyloid nucleation score of -0.691 ± 0.34. As for LKEHYF, the figure is -1.44 ± 0.55.

In turn, CFLTNRTRNSYRPSGKPLDM yielded an amyloid nucleation score of -0.702 ± 0.61.

In the case of GVYNITTLLPRCVVNVVL, the amyloid nucleation score was 7.482 ± 0.028. With KLANV the entry was “inactive”; with MSFKDNYQPK, -0.707 ± 0.76. With RAWCYTGMRGDMESW the figure was -0.447 ± 0.41; with YEYVSYCVSDFRYLLQTV, 0.436 ± 0.66. With WSVWVRDSGSRMS the figure was 1.22 ± 0.13. Regarding LLYHVGSTMGKPIYN, the amyloid nucleation score was -0.669 ± 1. As for LLSSFIALSWCWRWFKHSS, the figure is 4.972 ± 0.045; as for LYRVILLSSRHNGSNIWAEF, 0.127 ± 0.74. With TSVYFHFGFPPWVGVPRRLT the figure was 3.17 ± 0.077; with IQSFVKYKNVSRMYLTCPNL, 1.2 ± 0.2; with GVCVKRFFKLVTAGECNSKG, -0.13 ± 0.4. The substance LRKALIDAFRT returned an amyloid nucleation score of 2.18 ± 0.066. With IFIRLFVLANYCINLFSS the figure was 3.28 ± 0.082; with VYYLVSLGLT, 1.91 ± 0.14.

With SLSYDWFASHLWTYDGW, the amyloid nucleation score was -1.03 ± 0.34. TLWYRLFLVSISVFPKFVTE: the amyloid nucleation score was -0.451 ± 1.1.

As to SVLCEGTPEETTFLSDRLSG, the amyloid nucleation score was determined as 1.09 ± 0.27. With LTPEFSVCGCRTEG the figure was 2.65 ± 0.072; with YSHSLHVIQKSFFCITVFVM, 5.28 ± 0.08; with SSDLAGQRLSLCWVLCTG, 0.474 ± 0.53. In the case of CQLFMQSSRCIRRRFATSAC, the amyloid nucleation score was -0.295 ± 0.76. Turning to RLLMGPVNSFGR, the amyloid nucleation score came out at 3.57 ± 0.07. As for ASSYMRWVEARTRYLACAEN, the figure is 4.665 ± 0.046. As for MTDLLTMVAYRLKGSRVSSM, the amyloid nucleation score is 0.08 ± 0.37. Substance SNDLTCTYVRIQCWAMEPAS showed an amyloid nucleation score of 5.142 ± 0.039.

In turn, VGDRSFVMFSIFESAGSCCT registered an amyloid nucleation score of 1.03 ± 0.25.

The substance LAKFYLWCSGYMHSS had an amyloid nucleation score of 0.214 ± 0.65.

As to DRARMYYYSEIHSVVTSIIK, the amyloid nucleation score result was “inactive”. With LDFHPVCRGMSSPCQCASMR the figure was 0.907 ± 0.2; with CRIVKRVRAADRRMWIMCLG, -0.256 ± 0.37.

The substance VVDTMNFNYCVVCSLRSVWQ had an amyloid nucleation score of 10.5 ± 0.058.

YREACCCNSFACPGATDVGP: the amyloid nucleation score turned out to be 9.188 ± 0.046. As for NGMFLRTRCIRVFAVRRMLQ, the figure is 1.12 ± 0.26; as for RYRLISTTFGVAHSFEPPRL, 4.26 ± 0.059. Take VWYITIYIWGMRRLIAWRMS: the amyloid nucleation score is 0.31 ± 0.74.

As for RTCTFVCRGM, the amyloid nucleation score is 2.86 ± 0.1. The substance CRAFVWQ gave an amyloid nucleation score of -0.889 ± 0.55. For REAARRLGEKPNIAVGFDAG, the amyloid nucleation score turned out to be 0.559 ± 0.44.

In turn, QYGCMEYRHNKCNQREVCRY came in with an amyloid nucleation score of 0.281 ± 0.5. With LTATLAFLVSCFYCSL the figure was 6.95 ± 0.028; with VYTRKCGLAFRVSSGT, 0.574 ± 0.5.

In turn, KTTHDCGSAHVGL had an amyloid nucleation score of -0.504 ± 0.63. Substance VWTES yielded an amyloid nucleation score of 1.83 ± 0.25.

For KYNSCSYEGSRRILFSGACR, the amyloid nucleation score was -0.699 ± 0.45.

Take VAYYEDVLSSYFIERW: the amyloid nucleation score was -0.392 ± 0.29. As for LALIMTFLQPGERLRGSVAI, the entry is “inactive”; as for FKGHHGHKVWETH, -0.145 ± 1.1; as for LRSLINCYAKVICRTYRFVG, -0.885 ± 0.61.

For LCNNKAYNDKLSPEPLAISR, the amyloid nucleation score was -0.578 ± 0.39. NSSRGQPHLSNFPIRHHHVN showed an amyloid nucleation score of 0.461 ± 0.66.

The substance KLQFVGFCTNDAKYKGRIPG displayed an amyloid nucleation score of 2.35 ± 0.089. For SVGPLLYATMSMAGDSVAGA, the amyloid nucleation score is 0.004 ± 0.34. With HWWLVIAMNRLGCFGEFMMR the figure was -0.547 ± 0.63; with CRRSNFNYQGVLGYWHRFAG, -0.755 ± 1.1; with MLVWTNMFSTLYDISWKAPL, -1.02 ± 0.62. With LTCLFPFWRWCIPAAIEFRR the figure was 0.901 ± 0.28; with NGFMVSFV, -1.39 ± 0.41; with TIWVATLDFPNSYMSSALFV, 4.27 ± 0.093. As for GYSSGFQVAVNLRSTLRQSY, the figure is 3.03 ± 0.068.

YKGQCSILLGRVRWDFSSSS yielded an amyloid nucleation score of -1.02 ± 0.78. Substance YIVCYAVSGLVWSIGSHEGM displayed an amyloid nucleation score of 1.86 ± 0.13. Consider IRVRGFPSSHRSV, for which the amyloid nucleation score was -0.901 ± 0.78. LSYYKVIWGHLMVKYPTYRQ gave an amyloid nucleation score of -0.177 ± 0.32. The substance VWWVAFYSGTKI gave an amyloid nucleation score of 0.019 ± 1.1. As for KFIFTSLAN, the figure is -0.425 ± 0.61; as for YERMWCHLLVLRPNKQK, 0.697 ± 0.81. For the substance KCYQSFNNADALM, the amyloid nucleation score was -0.627 ± 0.33. Take SLEKMWCRLFKGSQT: the amyloid nucleation score is 1.11 ± 0.12. With LYDIDWRFRHKDAHQCKVDR the figure was -0.184 ± 1.1; with IDYHD, -1.45 ± 0.78. In turn, YNQRTFVSVSYEWTSGPWVC came in with an amyloid nucleation score of 0.334 ± 0.33.

THLLVVWFDNRYF: the amyloid nucleation score stood at 0.978 ± 0.74. As for DITYQHDGVIE, the figure is -0.789 ± 0.32; as for LCINN, -1.99 ± 1.1; as for SFNVSTMRLQIVSVLRKSRR, 0.236 ± 1.1. With GGERMRSRKYEYGGWNMCYY the entry was “inactive”. Turning to KIVSWAMIIARVVYCDQDL, the amyloid nucleation score entry was “inactive”. With YYDLRAATESDVRHGTADHR the figure was 0.195 ± 0.37. With SLYLNKSSSSGRIQLYGLFT, the amyloid nucleation score is 0.049 ± 1.1. With SFIHFPFWFILHNRALTRRV the figure was 0.057 ± 1.1. GAIDLMDALRCPAKTDTR displayed an amyloid nucleation score of 0.811 ± 0.67. As for GVCPTVVCPHYIDVRML, the amyloid nucleation score amounted to 0.16 ± 0.55.

The substance YNISDLSMSYMAIRAYDSGS registered an amyloid nucleation score of -1.38 ± 0.62.

Substance STVWVFRYYNNYWYDQRTLP displayed an amyloid nucleation score of 6.807 ± 0.054. As to FFWNM, the amyloid nucleation score was -0.274 ± 0.34.

In turn, DGNWL came in with an amyloid nucleation score of -0.385 ± 0.76. VVRVFLKGSSCGSLEAFDYV came in with an amyloid nucleation score of 2.86 ± 0.19. With AYCCINLHYNLKVS the figure was 0.665 ± 0.65.

With LVVVRMGGIGLESFVAHGEV, the amyloid nucleation score was determined as 0.524 ± 0.35. As for VFMTSLY, the amyloid nucleation score was -1.06 ± 0.49. Consider CMREATFRLTSKFLSSFGL, for which the amyloid nucleation score worked out at 4.04 ± 0.086. As for ICPFKSWFFYSLPYAFVRFT, the entry is “inactive”. For HVTWKNMIIDYLVP, the amyloid nucleation score stood at 0.615 ± 0.6.

The substance INVSVFVVFRNRQRLKC showed an amyloid nucleation score of 7.363 ± 0.058.

QLFFRYYCEAGDVCIFGHIA came in with an amyloid nucleation score of 3.32 ± 0.099. As for SHNFRISYKSCVLNSCMKRL, the amyloid nucleation score result was “inactive”. As for GRKLMWSRF, the figure is 0.004 ± 0.45; as for LPNRVNDRDAEYHVMLLCK, 0.095 ± 0.27. With VFFGVQNKR the figure was 3.04 ± 0.095; with FCMAISFQCVNTRGFMPTAG, 7.394 ± 0.071; with QWSVINRTS, 1.54 ± 0.31. As for ILFIIWGHLRYVRIVSYVGY, the figure is -1.48 ± 0.62; as for LERLVSALLHTIRFRRMVVH, “inactive”. AELSA yielded an amyloid nucleation score of 0.606 ± 0.8. With RSKDYVFFCFSCTNWLC the figure was 8 ± 0.082. STYPILR showed an amyloid nucleation score of 2.02 ± 0.18. Substance IYLCTDSLSYRSFVRGN displayed an amyloid nucleation score of 1.18 ± 0.17.

In turn, MLCCLCMMVCDR came in with an amyloid nucleation score of 8.673 ± 0.032.

YITYSREAETCIFVKGDFS registered an amyloid nucleation score of -0.153 ± 1.1. Substance LSMEVRGMVATMVVTWNFVS came in with an amyloid nucleation score of 0.07 ± 0.32.

With ITYGKVLR, the amyloid nucleation score stood at 0.379 ± 0.44.

Consider CVCLD, for which the amyloid nucleation score is 0.1 ± 0.33.

For the substance NSPMSKSLNRT, the amyloid nucleation score was determined as 0.347 ± 0.22. On to VRFVMNRSHHRSRWEAVAFN, for which the amyloid nucleation score stood at 0.255 ± 0.48. As for SIRQTCKFGYIMAWL, the amyloid nucleation score turned out to be 7.064 ± 0.057.

In the case of KLPFICINRGWWLVGRINSS, the amyloid nucleation score was 3.07 ± 0.18. With RLCLRDQYSFGQIVDYKCFD the entry was “inactive”; with TLCTVSHLNDSLLIFIRFVV, “inactive”; with MVINSAWVCENGLSQYFLAK, 4.27 ± 0.075.
